Assay results reported in patent US6747136 (KAROLINA INNOVATIONS, dated 2004).
Where “and” joins values, the source holds several entries; their conditions need not be identical. Equal entries are not always repeated.

Tests used:
[1] = target: T1, HCV E2 antigen (HCV genotype 1b) (hepatitis C virus genotype 1b); test: NOB assay: Fab pre-mixed with E2 1b, E2 binding to MOLT-4 cells by flow cytometry; 50% reduction titer, Exp. II
T1 construct: also called E2 1b; E2 antigen of genotype 1b

[2] = target: T2, recombinant conformational HCV E2 antigen (HCV genotype 1a) (hepatitis C virus, HCV1 (genotype 1a), UniProt P26664 383-715)
[3] = target: T2, recombinant conformational HCV E2 …; test: inhibition ELISA: coated E2 1a, soluble E2 as inhibitor
[4] = target: T2, recombinant conformational HCV E2 …; remark: listed apart in the source
bovine serum albumin [5] = target: T3, bovine serum albumin (bovine, UniProt P02769 25-607); test: ELISA, coated BSA 5 ug/ml
T3 construct: also called BSA

bovine serum albumin [6] = target: T3, bovine serum albumin; test: ELISA, […] (100 ug/ml) […]
[7] = target: T2, recombinant conformational HCV E2 …; test: ELISA, […] (100 ug/ml) […]
[8] = target: recombinant HCV E1/E2 complex antigen (hepatitis C virus, HCV1, UniProt P26664 192-383; P26664 384-746); test: ELISA, […] (100 ug/ml) […]
Sequence of recombinant HCV E1/E2 complex antigen (P26664 192-383 limits assumed, chain 1 of 2): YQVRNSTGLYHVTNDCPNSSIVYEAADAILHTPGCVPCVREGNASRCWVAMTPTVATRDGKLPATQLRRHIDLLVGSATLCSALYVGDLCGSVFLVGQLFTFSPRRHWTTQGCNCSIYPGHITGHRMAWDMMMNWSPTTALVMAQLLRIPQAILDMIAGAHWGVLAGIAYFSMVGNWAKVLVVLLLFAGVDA
Sequence of recombinant HCV E1/E2 complex antigen (P26664 384-746 limits assumed, chain 2 of 2): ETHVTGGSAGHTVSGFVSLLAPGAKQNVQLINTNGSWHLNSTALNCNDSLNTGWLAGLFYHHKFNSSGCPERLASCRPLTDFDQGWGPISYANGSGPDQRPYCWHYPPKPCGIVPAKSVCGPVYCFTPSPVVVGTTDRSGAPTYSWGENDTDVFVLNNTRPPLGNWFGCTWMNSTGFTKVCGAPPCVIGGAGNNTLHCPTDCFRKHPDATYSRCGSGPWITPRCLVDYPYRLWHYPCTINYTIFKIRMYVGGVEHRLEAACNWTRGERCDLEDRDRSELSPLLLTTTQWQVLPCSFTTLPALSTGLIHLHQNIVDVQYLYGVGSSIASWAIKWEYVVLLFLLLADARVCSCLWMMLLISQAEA

T3 sequence (P02769 25-607 limits assumed): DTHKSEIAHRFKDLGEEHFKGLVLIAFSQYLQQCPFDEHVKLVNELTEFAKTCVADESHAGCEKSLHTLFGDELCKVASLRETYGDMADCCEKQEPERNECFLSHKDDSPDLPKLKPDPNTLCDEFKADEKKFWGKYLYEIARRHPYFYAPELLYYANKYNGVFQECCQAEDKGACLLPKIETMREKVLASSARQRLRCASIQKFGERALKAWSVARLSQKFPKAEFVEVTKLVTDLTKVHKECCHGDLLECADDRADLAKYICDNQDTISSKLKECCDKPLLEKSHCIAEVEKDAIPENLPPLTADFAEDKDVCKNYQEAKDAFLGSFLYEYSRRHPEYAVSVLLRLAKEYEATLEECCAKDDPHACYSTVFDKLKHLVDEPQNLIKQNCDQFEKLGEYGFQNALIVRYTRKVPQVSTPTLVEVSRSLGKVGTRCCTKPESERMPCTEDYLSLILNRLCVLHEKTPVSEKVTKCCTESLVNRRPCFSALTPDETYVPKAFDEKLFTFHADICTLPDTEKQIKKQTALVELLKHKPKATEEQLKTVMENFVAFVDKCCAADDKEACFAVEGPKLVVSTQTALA
T2 sequence (P26664 383-715): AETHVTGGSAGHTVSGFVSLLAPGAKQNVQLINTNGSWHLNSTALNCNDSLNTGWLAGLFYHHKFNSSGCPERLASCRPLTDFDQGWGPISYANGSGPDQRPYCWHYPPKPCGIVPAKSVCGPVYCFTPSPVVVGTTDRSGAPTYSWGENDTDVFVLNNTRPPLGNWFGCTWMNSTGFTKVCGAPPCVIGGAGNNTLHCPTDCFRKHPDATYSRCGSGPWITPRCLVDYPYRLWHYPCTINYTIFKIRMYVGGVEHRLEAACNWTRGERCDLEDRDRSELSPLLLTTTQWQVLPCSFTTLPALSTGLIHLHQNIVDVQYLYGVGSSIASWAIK

| Binder | IC50 [1] [µg/mL] | IC50 [2] | Ka [3] [M⁻¹] | Kd [4] [nM] | binding result (bovine serum albumin [5]) | OD405 nm (ELISA reactivity) (bovine serum albumin [6]) [OD405 nm] | OD405 nm (ELISA reactivity) [7] [OD405 nm] | OD405 nm (ELISA reactivity) [8] [OD405 nm] |
| --- | --- | --- | --- | --- | --- | --- | --- | --- |
| Fab molecule clone L1 (Fab, V domains shown, also called Ll) VH: EVQLLESGGGVVQPGRSLRLSCAASGFTFSAYGMHWVRQAPGKGLEWVAGIWFDGSNQYYSDSVKGRFTVSRDNSRNTLFLQMNSLRPEDTAVYYCATEVLFGSIKGRYYLENWGQGTLVTVSS VL: AELTQSPGTLSLSVGERATLSCRASQNIYSGYLGWYQQKPGQPPRLLIYGASNRATGIPDRFSGSGSGTDFTLTISRLESEDFAVYYCQQYGSPPYTFGQGTKVEIK | 0.03 | 0.02 µg/mL and 0.03 µg/mL | ~4e+07 | ~28 | – | – | – | – |
| Fab molecule clone A12 (Fab, V domains shown) VH: EVQLLESGSEVKKPGSSVKVSCRASGGSFRSYNFNWVRQAPGQGLEWMGGIIPMFGTANYAQKFQGRVTITADESTATGYMELSSLRSEDTAVYYCAMPYPKHCSRGSCWGWFDPWGQGTLVTVSS VL: AELTQSPGTLSLSPGERATLSCRASQSLSSKYLAWYQQKPGQAPRLFIYDASSRATGIPDRFSGSGSGTDFTLSISRLEPEDFAVYYCQQYGTPRTFGQGTKVEIK | – | 0.1 µg/mL | ~1e+07 | ~100 | – | – | – | – |
| Fab molecule clone 1:7 (Fab, V domains shown) VH: VQLLEQSGAEVKKPGSSVKVSCQVFGDTFSRYTIQWLRQAPGQGPEWMGNIIPVYNTPNYAQKFQGRLSITADDSTSTAYMELSSLRSEDTAVYFCARVVIPNAIRHTMGYYFDYWGQGTLVTVSS VL: AELTQSPATLSLSPGERATLSCRASQSVNKYLAWYQQKPGQAPRLLIYDASNRATGIPARFSGSGSGTDFTLTISNLEPEDFAVYYCQQRSDWVTFGGGTKVEIK | – | 0.02 µg/mL and 0.01 µg/mL | ~2e+08 | ~6 | no binding | 0.006 | > 3 | > 3 |
| Fab molecule clone 1:5 (Fab, V domains shown) VH: VQLLEQSGAEVRKPGSSVKVSCKASGGTFSGHVITWVRQAPGQGLEWMGESIPIFGSANYAQNYAQKFRDRVSIIADESTSTSFIELSNLRSDDTAVYYCARDPPRYCSAGRCYPGFFQQWGQGTLVTVSS VL: AELTQSPGTLSLSPGERATLSCRASQSVSSNYLAWYQQRPGQAPRLLIYGASSRATGIPDRFSGSGSGTDFTLTISRLEPEDFAVYYCQLYGNSRWTFGQGTKVEIK | – | 1.5 µg/mL and 2.5 µg/mL | < 1e+07 | > 100 | no binding | – | – | – |
| Fab molecule clone 1:11 (Fab, V domains shown) VH: VQLLEQSGAEVKKPGSSVKVSCKASGGTFSGHVISWVRQAPGQGLEWMGGSISFFGTSNSAQKFQGRVSITADESASTAYMELSSLRSEDTAIYYCAKDPPRFCSGGNCYPGFFQQWGQGTLVTVSS VL: AELTQSPGTLSLSPGERATLSCGASQSVRSNYLAWYQQKPGQAPRLLIYGVSSRATGIPDRFSGSGSGTDFTLTISRLEPEDFAVYYCQQYGSSPRTFGQGTKLEIK | – | – | ~4e+07 | ~28 | – | – | – | – |
| Fab molecule clone A8 (Fab, V domains shown) VH: EVQLLESGPGLVKPSGTLSLTCTVSGGSIRSSHWWSWVRQPPGKGLEWIGEVFFSGSTIYNPSLNDRVFMSVDKSKDQVSLRLSSVTAADTAVYYCARSPIKMNQGRMMLDAFDIWGQGTLVIVSS VL: AELTQSPSSLSAFVGDRVTITCRASQSISRNLNWYQQKPGTAPKVLIYAASSLQSGVPSRFSGSGSGTDFTLTITSLQPEDFATYYCQQSYTTPRTFGQGTKVEVK | – | 0.001 µg/mL | ~2e+08 | ~6 | – | – | – | – |
| Fab molecule clone L3 (Fab, V domains shown) VH: EVQLLESGGGVVQPGRSLRLSCAASGFTFKTYGMHWVRQAPGKGLEWVAGISFDGSNQYYADSVKGRFIVSRDNSRDTVFLQMSSLRLEDTAVYYCATEGSPFGSIKGRYYLENWGQGTLVTVSS VL: AELTQSPATLSVSPGERASLSCRASQSVGNNLAWYQQKPGQAPRLLIYGGNTRATGTPDRFSGSGSGTEFTLTISSLQSEDFAVYFCQHYSTWPLTFGGGTKVEFK | – | 0.02 µg/mL | ~4e+07 | ~28 | no binding | 0.089 | 1.7 | 2.46 |
